B1: PRO3697, scFv (VL-linker-VH) 69-06-G04-sc05_(VL_A67G_S68G; VH_T101S_L146K) (scFv)
scFv: AFQLTQSPSSLSASVGDRVTITCQASQSIGTYLAWYQQKPGKPPKLLIYRGGTLASGVPSRFSGSGSGTDFTLTISSLQPEDFATYYCQSYDSSNTFGTGTKVTVLGGGGGSGGGGSGGGGSGGGGSQEQLVESGGGLVQPGRSLRLSCAASGFDLSADYMCWVRQAPGKGLEWIACIYIDDDNTYYATWAKGRFTISKDNSKNTVYLQMNSLRAEDSAVYFCARGYGVYTGAITYFTLWGQGTLVKVSS
B2: PRO3744, scFv (VL-linker-VH) 68-18-E11-sc07_(VL_A67G_S68G_T141C; VH_G51C_T101S_T146K) (scFv)
scFv: DVQMTQSPSSLSASVGDRVTITCQASQSIGSNLAWYQQKPGKPPKLLIYKGGTLESGVPSRFSGSGSGTDFTLTISSLQPEDFATYYCQSTAGSSRSGNYGYVFGCGTKVTVLGGGGGSGGGGSGGGGSGGGGSQQLVESGGGLVQPGGSLRLSCAASGFSFTNNYYMCWVRQAPGKCLEWIACMLVGAWGNTYYASWANGRFTISKDNSKNTVYLQMNSLRAEDSAVYFCARARDYTWTLGGDPETSGFNLWGQGTLVKVSS
B3: PRO3696, scFv (VL-linker-VH) 69-01-E02-sc06_(VL_A67G_S68G; VH_T101S_L146K) (scFv)
scFv: DVQMTQSPSSLSASVGDRVTITCQASQSIGLNLAWYQQKPGKPPKLLIYAGGYLASGVSSRFSGSGSGTDFTLTISSLQPEDFATYYCQSTYDGSSFVFAFGTGTKVTVLGGGGGSGGGGSGGGGSGGGGSQEQLVESGGGLVQPGGSLRLSCAASGFSFSSSSYMCWVRQAPGKGLEWIACMVTGSSDDTDYASWAKGRFTISKDNSKNTVYLQMNSLRAEDSAVYFCARAGSAPLWGQGTLVKVSS
B4: PRO4710 (IgG4 of scFv PRO3744, 68-18-E11-sc07) (antibody, V domains shown)
VH: QQLVESGGGLVQPGGSLRLSCAASGFSFTNNYYMCWVRQAPGKGLEWIACMLVGAWGNTYYASWANGRFTISKDNSKNTVYLQMNSLRAEDTAVYFCARARDYTWTLGGDPETSGFNLWGQGTLVTVSS
VL: DVQMTQSPSSLSASVGDRVTITCQASQSIGSNLAWYQQKPGKPPKLLIYKGGTLESGVPSRFSGSGSGTDFTLTISSLQPEDFATYYCQSTAGSSRSGNYGYVFGQGTKVEIKR
B5: PRO4672 (37-20-B03-based PDL1-BD), anti-CD47 x PDL1 x LILRB2, (scFv)2-Fc-(scFv)2 (trispecific antibody)
chain 1: DVQMTQSPSSLSASVGDRVTITCQASQSISSWVSWYQQKPGKPPKLLIYRGGYLESGVPSRFSASGSGTDFTLTISSLQPEDFATYYCQSTDSSTYGGAFGCGTKVTVLGGGGGSGGGGSGGGGSGGGGSQQVVESGGGLVQPGGSLRLSCAVSGIDLNSYAMTWVRQAPGKCLEWIGYIGSASSTYYASWASGRFTISKDNSKNTVYLQMNSLRAEDSAVYFCARGSTYINIWGQGTLVKVSSEPKSSDKTHTCPPCPAPELLGGPSVFLFPPKPKDTLMISRTPEVTCVVVDVSHEDPEVKFNWYVDGVEVHNAKTKPREEQYNSTYRVVSVLTVLHQDWLNGKEYKCKVSNKALPAPIEKTISKAKGQPREPQVYTLPPCREEMTKNQVSLSCAVKGFYPSDIAVEWESNGQPENNYKTTPPVLDSDGSFFLVSKLTVDKSRWQQGNVFSCSVMHEALHNHYTQKSLSLSPGKGGGGSGGGGSDVQMTQSPSSLSASVGDRVTITCQASQSIGSNLAWYQQKPGKPPKLLIYKGGTLESGVPSRFSGSGSGTDFTLTISSLQPEDFATYYCQSTAGSSRSGNYGYVFGCGTKVTVLGGGGGSGGGGSGGGGSGGGGSQQLVESGGGLVQPGGSLRLSCAASGFSFTNNYYMCWVRQAPGKCLEWIACMLVGAWGNTYYASWANGRFTISKDNSKNTVYLQMNSLRAEDSAVYFCARARDYTWTLGGDPETSGFNLWGQGTLVKVSS
chain 2: not shown
B6: PRO5052 (PRO4672 with 33-03-G02-based PDL1-BD), anti-CD47 x PDL1 x LILRB2, (scFv)2-Fc-(scFv)2 (trispecific antibody)
chain 1: DVQMTQSPSSLSASVGDRVTITCQASQSISSWVSWYQQKPGKPPKLLIYRGGYLESGVPSRFSASGSGTDFTLTISSLQPEDFATYYCQSTDSSTYGGAFGCGTKVTVLGGGGGSGGGGSGGGGSGGGGSQQVVESGGGLVQPGGSLRLSCAVSGIDLNSYAMTWVRQAPGKCLEWIGYIGSASSTYYASWASGRFTISKDNSKNTVYLQMNSLRAEDSAVYFCARGSTYINIWGQGTLVKVSSEPKSSDKTHTCPPCPAPELLGGPSVFLFPPKPKDTLMISRTPEVTCVVVDVSHEDPEVKFNWYVDGVEVHNAKTKPREEQYNSTYRVVSVLTVLHQDWLNGKEYKCKVSNKALPAPIEKTISKAKGQPREPQVYTLPPCREEMTKNQVSLSCAVKGFYPSDIAVEWESNGQPENNYKTTPPVLDSDGSFFLVSKLTVDKSRWQQGNVFSCSVMHEALHNHYTQKSLSLSPGKGGGGSGGGGSDVQMTQSPSSLSASVGDRVTITCQASQSIGSNLAWYQQKPGKPPKLLIYKGGTLESGVPSRFSGSGSGTDFTLTISSLQPEDFATYYCQSTAGSSRSGNYGYVFGCGTKVTVLGGGGGSGGGGSGGGGSGGGGSQQLVESGGGLVQPGGSLRLSCAASGFSFTNNYYMCWVRQAPGKCLEWIACMLVGAWGNTYYASWANGRFTISKDNSKNTVYLQMNSLRAEDSAVYFCARARDYTWTLGGDPETSGFNLWGQGTLVKVSS
chain 2: not shown
B7: PRO4687 (37-20-B03-based PDL1-BD), anti-CD47 x PDL1 x LILRB2 (trispecific antibody, human IgG1, kappa)
chain: DVQMTQSPSSLSASVGDRVTITCQASQSISSWVSWYQQKPGKPPKLLIYRGGYLESGVPSRFSASGSGTDFTLTISSLQPEDFATYYCQSTDSSTYGGAFGCGTKVTVLGGGGGSGGGGSGGGGSGGGGSQQVVESGGGLVQPGGSLRLSCAVSGIDLNSYAMTWVRQAPGKCLEWIGYIGSASSTYYASWASGRFTISKDNSKNTVYLQMNSLRAEDSAVYFCARGSTYINIWGQGTLVKVSSEPKSSDKTHTCPPCPAPELLGGPSVFLFPPKPKDTLMISRTPEVTCVVVDVSHEDPEVKFNWYVDGVEVHNAKTKPREEQYNSTYRVVSVLTVLHQDWLNGKEYKCKVSNKALPAPIEKTISKAKGQPREPQVYTLPPCREEMTKNQVSLSCAVKGFYPSDIAVEWESNGQPENNYKTTPPVLDSDGSFFLVSKLTVDKSRWQQGNVFSCSVMHEALHNHYTQKSLSLSPGKGGGGSGGGGSDVQMTQSPSSLSASVGDRVTITCQASQSIGSNLAWYQQKPGKPPKLLIYKGGTLESGVPSRFSGSGSGTDFTLTISSLQPEDFATYYCQSTAGSSRSGNYGYVFGCGTKVTVLGGGGGSGGGGSGGGGSGGGGSQQLVESGGGLVQPGGSLRLSCAASGFSFTNNYYMCWVRQAPGKCLEWIACMLVGAWGNTYYASWANGRFTISKDNSKNTVYLQMNSLRAEDSAVYFCARARDYTWTLGGDPETSGFNLWGQGTLVKVSS
heavy: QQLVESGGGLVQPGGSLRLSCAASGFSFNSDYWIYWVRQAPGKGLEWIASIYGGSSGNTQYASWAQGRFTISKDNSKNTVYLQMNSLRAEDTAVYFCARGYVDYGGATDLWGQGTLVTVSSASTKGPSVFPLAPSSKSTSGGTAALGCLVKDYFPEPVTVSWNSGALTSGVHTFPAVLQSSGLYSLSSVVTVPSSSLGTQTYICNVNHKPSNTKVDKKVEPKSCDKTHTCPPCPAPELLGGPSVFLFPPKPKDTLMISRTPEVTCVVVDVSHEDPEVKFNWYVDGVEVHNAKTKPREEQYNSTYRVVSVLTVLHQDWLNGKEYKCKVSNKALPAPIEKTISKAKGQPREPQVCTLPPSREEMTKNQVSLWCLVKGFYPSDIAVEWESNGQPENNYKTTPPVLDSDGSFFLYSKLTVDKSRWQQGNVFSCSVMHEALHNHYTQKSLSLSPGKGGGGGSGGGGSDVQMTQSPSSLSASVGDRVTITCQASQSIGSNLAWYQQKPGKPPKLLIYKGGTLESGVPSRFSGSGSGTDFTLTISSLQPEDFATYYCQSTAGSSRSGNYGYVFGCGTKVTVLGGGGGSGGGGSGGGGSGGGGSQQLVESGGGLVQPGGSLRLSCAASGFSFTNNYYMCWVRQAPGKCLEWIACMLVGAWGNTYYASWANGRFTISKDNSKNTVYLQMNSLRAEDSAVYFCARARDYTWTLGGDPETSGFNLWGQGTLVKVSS
light: DIQMTQSPSSLSASVGDRVTITCQASQSIGTYLAWYQQKPGKPPKLLIYRGGILASGVPSRFSGSGSGTDFTLTISSLQPEDFATYYCQSNFYSDSTTIGPNAFGQGTKVEIKRTVAAPSVFIFPPSDEQLKSGTASVVCLLNNFYPREAKVQWKVDNALQSGNSQESVTEQDSKDSTYSLSSTLTLSKADYEKHKVYACEVTHQGLSSPVTKSFNRGEC
B8: PRO5055 (PRO4687 with 33-03-G02-based PDL1-BD), anti-CD47 x PDL1 x LILRB2 (trispecific antibody, human IgG1, kappa)
chain: DVQMTQSPSSLSASVGDRVTITCQASQSISSWVSWYQQKPGKPPKLLIYRGGYLESGVPSRFSASGSGTDFTLTISSLQPEDFATYYCQSTDSSTYGGAFGCGTKVTVLGGGGGSGGGGSGGGGSGGGGSQQVVESGGGLVQPGGSLRLSCAVSGIDLNSYAMTWVRQAPGKCLEWIGYIGSASSTYYASWASGRFTISKDNSKNTVYLQMNSLRAEDSAVYFCARGSTYINIWGQGTLVKVSSEPKSSDKTHTCPPCPAPELLGGPSVFLFPPKPKDTLMISRTPEVTCVVVDVSHEDPEVKFNWYVDGVEVHNAKTKPREEQYNSTYRVVSVLTVLHQDWLNGKEYKCKVSNKALPAPIEKTISKAKGQPREPQVYTLPPCREEMTKNQVSLSCAVKGFYPSDIAVEWESNGQPENNYKTTPPVLDSDGSFFLVSKLTVDKSRWQQGNVFSCSVMHEALHNHYTQKSLSLSPGKGGGGSGGGGSDVQMTQSPSSLSASVGDRVTITCQASQSIGSNLAWYQQKPGKPPKLLIYKGGTLESGVPSRFSGSGSGTDFTLTISSLQPEDFATYYCQSTAGSSRSGNYGYVFGCGTKVTVLGGGGGSGGGGSGGGGSGGGGSQQLVESGGGLVQPGGSLRLSCAASGFSFTNNYYMCWVRQAPGKCLEWIACMLVGAWGNTYYASWANGRFTISKDNSKNTVYLQMNSLRAEDSAVYFCARARDYTWTLGGDPETSGFNLWGQGTLVKVSS
heavy: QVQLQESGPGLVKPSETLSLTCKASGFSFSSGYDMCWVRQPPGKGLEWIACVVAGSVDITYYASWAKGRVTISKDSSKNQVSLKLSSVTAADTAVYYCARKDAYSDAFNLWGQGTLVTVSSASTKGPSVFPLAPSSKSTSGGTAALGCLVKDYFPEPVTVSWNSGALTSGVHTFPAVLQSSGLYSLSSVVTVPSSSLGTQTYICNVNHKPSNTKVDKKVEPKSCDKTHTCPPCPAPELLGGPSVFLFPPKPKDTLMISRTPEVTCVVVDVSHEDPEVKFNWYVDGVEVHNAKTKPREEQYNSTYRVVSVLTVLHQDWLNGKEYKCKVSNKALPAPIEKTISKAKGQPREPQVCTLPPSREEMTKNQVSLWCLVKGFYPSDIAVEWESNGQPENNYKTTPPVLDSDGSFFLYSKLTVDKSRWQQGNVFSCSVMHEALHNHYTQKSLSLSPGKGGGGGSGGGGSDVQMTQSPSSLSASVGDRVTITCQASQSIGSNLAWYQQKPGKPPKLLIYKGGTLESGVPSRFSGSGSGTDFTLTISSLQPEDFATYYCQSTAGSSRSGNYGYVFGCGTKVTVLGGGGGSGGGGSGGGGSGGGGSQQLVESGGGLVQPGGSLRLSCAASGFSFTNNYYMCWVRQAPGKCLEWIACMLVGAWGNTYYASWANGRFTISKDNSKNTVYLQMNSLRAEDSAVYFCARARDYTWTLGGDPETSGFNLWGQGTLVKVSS
light: DIQMTQSPSSLSASVGDRVTITCQASQSINDYLAWYQQKPGKAPKLLIYKGGTLASGVPSRFSGSGSGTDFTLTISSLQPEDFATYYCQQGYIITDIDNVFGQGTKVEIKRTVAAPSVFIFPPSDEQLKSGTASVVCLLNNFYPREAKVQWKVDNALQSGNSQESVTEQDSKDSTYSLSSTLTLSKADYEKHKVYACEVTHQGLSSPVTKSFNRGEC

These binders were tested against T1, LILRB2 on human monocyte-derived macrophages (HMDM) (human, UniProt Q8N423 22-597) (assay: cell-based or functional assay).
T1 sequence (Q8N423 22-597): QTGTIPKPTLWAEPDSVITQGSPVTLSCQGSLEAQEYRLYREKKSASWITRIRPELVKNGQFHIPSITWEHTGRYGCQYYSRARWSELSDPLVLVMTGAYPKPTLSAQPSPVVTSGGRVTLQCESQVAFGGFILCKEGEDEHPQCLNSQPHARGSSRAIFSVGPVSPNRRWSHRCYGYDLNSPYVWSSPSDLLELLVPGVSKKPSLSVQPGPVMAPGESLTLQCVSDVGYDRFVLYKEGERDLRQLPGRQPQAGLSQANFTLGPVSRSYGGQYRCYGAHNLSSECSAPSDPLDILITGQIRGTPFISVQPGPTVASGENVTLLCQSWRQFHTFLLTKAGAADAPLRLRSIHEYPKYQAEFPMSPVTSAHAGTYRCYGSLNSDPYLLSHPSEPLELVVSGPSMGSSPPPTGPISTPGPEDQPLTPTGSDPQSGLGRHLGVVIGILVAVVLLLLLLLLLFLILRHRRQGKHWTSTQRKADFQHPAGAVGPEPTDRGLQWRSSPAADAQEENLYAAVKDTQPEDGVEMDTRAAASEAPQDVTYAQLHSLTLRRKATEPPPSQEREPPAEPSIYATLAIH
In the case of B1, the “CD86 EC50 [nM], re-polarization of M2 macrophages” value (from here on “CD86 EC50 [nM], re-polarization”) is reported as 0.214 nM, the “CD163 EC50 [nM], re-polarization of M2 macrophages” value (“CD163 EC50 [nM], re-polarization” below) is reported as 0.173 nM and the “CD206 EC50 [nM], re-polarization of M2 macrophages” value (“CD206 EC50 [nM], re-polarization” below) is reported as 0.512 nM. The “IL-1β EC50 [nM], LPS-driven cytokine secretion by HMDM” value (“IL-1β EC50 [nM]” below) was 0.279 nM, the “IL-6 EC50 [nM], LPS-driven cytokine secretion by HMDM” value (“IL-6 EC50 [nM]” for short) was 0.45 nM and the “TNF-α EC50 [nM], LPS-driven cytokine secretion by HMDM” value (“TNF-α EC50 [nM]” for short) was 2.2 nM. For B2, the “CD86 EC50 [nM], re-polarization” value was 0.117 nM, the “CD163 EC50 [nM], re-polarization” value was 0.107 nM and the “CD206 EC50 [nM], re-polarization” value was 0.136 nM. For the same binder, the “IL-1β EC50 [nM]” value was 0.779 nM, the “IL-6 EC50 [nM]” value was 0.803 nM and the “TNF-α EC50 [nM]” value was 1.1 nM. B3 was tested, and the “CD86 EC50 [nM], re-polarization” value was 0.243 nM, the “CD163 EC50 [nM], re-polarization” value was 0.371 nM and the “CD206 EC50 [nM], re-polarization” value was 0.587 nM. For the same binder, the “IL-1β EC50 [nM]” value was 0.446 nM, the “IL-6 EC50 [nM]” value was 0.804 nM and the “TNF-α EC50 [nM]” value was 0.891 nM.

Biological target: T1, LILRB2 on human monocyte-derived …
Experiment: cell-based or functional assay
Remark: another data set of the same source
For B4, the “IL-1β EC50 [nM]” value was 0.248 nM, the “IL-6 EC50 [nM]” value was 0.153 nM and the “TNF-α EC50 [nM]” value was 0.169 nM. In the case of B5, the “IL-1β EC50 [nM]” value is reported as 0.096 nM, the “IL-6 EC50 [nM]” value is reported as 0.078 nM and the “TNF-α EC50 [nM]” value is reported as 0.123 nM. B6 was tested, and the “IL-1β EC50 [nM]” value was 0.082 nM, the “IL-6 EC50 [nM]” value was 0.077 nM and the “TNF-α EC50 [nM]” value was 0.117 nM. B7 was tested, and the “IL-1β EC50 [nM]” value was 0.205 nM, the “IL-6 EC50 [nM]” value was 0.097 nM and the “TNF-α EC50 [nM]” value was 0.175 nM. With B8 the “IL-1β EC50 [nM]” value was 0.0705 nM, the “IL-6 EC50 [nM]” value was 0.063 nM and the “TNF-α EC50 [nM]” value was 0.141 nM.
